Results taken from patent US20160129078A1, “Rhomboid Proteins and Uses Thereof” (Queen's University at Kingston, priority 2014, published 2016).

B1: At1g74130 S: 6/7 S-form splice variant of Arabidopsis At1g74130 rhomboid protein (protein, listed as Arabidopsis thaliana)
chain: MHAIFCRRVAVGCSSPQLTKLVTKQASQSRHSLSHLLPFDLSSRFVPPYVVSRSARVHGFFAGKLGNTNLKLKFGNVMESRAGFFSSELPSHGFESGGFTGFQKRGWKSWINGANGVVFGLVIANAAVFTMWRVLGKDNMWMVKNFMLSRYSFMTGRIHTLITSGFSHVGATHIILNMMGLCYFGARIARSFGPRYLLKLYFAGALGGSVFFLSSHALSVISLKGQRVVPKDQLKVPIGKLGANGPVYAITLLDMLLYPKVTTYFGLMLRVPVFAVRESIA
B2: At1g74130 M: 7/8 M-form splice variant of Arabidopsis At1g74130 rhomboid protein (protein, listed as Arabidopsis thaliana)
chain: MHAIFCRRVAVGCSSPQLTKLVTKQASQSRHSLSHLLPFDLSSRFVPPYVVSRSARVHGFFAGKLGNTNLKLKFGNVMESRAGFFSSELPSHGFESGGFTGFQKRGWKSWINGANGVVFGLVIANAAVFTMWRVLGKDNMWMVKNFMLSRYSFMTGRIHTLITSGFSHVGATHIILNMMGLCYFGARIARSFGPRYLLKLYFAGALGGSVFFLSSHALSVISLKGQRVVPKDQLKVPIGKLGANGPVYAITLLDMLLYPKVTTYFGLMLRVPVFAGIYSLGLNIIKMLEVCMMGKTTIP

Tests used:
[1] = test system: MDA-MB-231 breast cancer cells; experiment: MTT viability assay, sensitization to lapatinib; format: cell-based, human; conditions: co-treatment with lapatinib; most prominent at 10 or 15 uM after 48 and 72 hours; 5 or 10 ug protein
Text: (§1) Experiments were thus conducted to assess the ability of At1g74130 proteins or variants to enhance the sensitivity of two breast cancer cell lines to the chemotherapeutic drug lapatinib. The breast cancer cell lines selected for these assays were MDA-MB-231 and MDA-MB-468, two cell lines used frequently in cancer research. Any impact on the cells' ability to pump or transport drugs (in and out) may alter the efficacy a chemotherapeutic drug, e.g., by enhancing levels of cell death) or by increasing effectiveness at lower dosage levels. The design of the breast cancer cell assays was similar to that used for bacteria in the above examples, results, and figures. In these studies, the widely used MTT (methyl thiazolyl diphenyl-tetrazolium bromide) viability assay procedure was used to assess any impact exerted by At1g74130 variant S (see, for example, the MTT procedure described by Nagaria, T. S., et al., Flavopiridol synergizes with sorafenib to induce cytotoxicity and potentiate antitumorigenic activity in EGFR/HER-2 and mutant RAS/RAF breast cancer model systems, Neoplasia, 15:939-951, 2013).
(§2) Cells were cultured at 37° C. in 96-well plates (10,000 cells in 100 ul media per well) for 24-48 hours to near confluency. […] The assays were then read at 570 nm using a microplate scanning spectrophotometer. […]

[2] = test system: MDA-MB-468 breast cancer cells; experiment: MTT viability assay, sensitization to lapatinib; format: cell-based, human; conditions: co-treatment with lapatinib; most prominent at 10 or 15 uM after 48 and 72 hours; 5 or 10 ug protein
Text: as §1, §2

Pseudomonas aeruginosa = experiment: Enhancement of peptide delivery into Pseudomonas aeruginosa; format: cell-based; conditions: nine amino acid peptides targeting Type II secretion pseudopilin subunit
Text: With the Pseudomonas assay system described above, it was also possible to assess the ability and the utility of At1g74130 protein variants in the delivery of other peptides into cells. The assays were designed in the same manner as above to determine if peptide delivery can be enhanced or facilitated by rhomboids. The other peptides used were designed to inhibit protein secretion, in this case, lipases. The peptides used in these assays were nine amino acids long and targeted a specific region of one protein subunit of the Type II secretion machinery pseudopilin. The inhibitory actions of this nine amino acid peptide are due to interactions with the target region of the protein subunit. If peptide delivery was facilitated or enhanced by rhomboids, outcomes may be observed by changes in cell/colony growth (Pseudomonas) on the minimal media-olive oil plates. Such changes in growth would reflect changes in lipase secretion, which is needed for breaking down olive oil so that the released carbon can be used for cell growth.
The delivery of the M variant further into the cell releases the impairment and allows growth to resume (i.e., the assay with elution buffer, DMSO, and M). […]

Molecule | increase in level of cell death [1] [%] | increase in level of cell death [2] [%] | peptide delivery into cells (Pseudomonas aeruginosa)
B1 | 20 to 40 | 20 to 40 | 
B2 |  |  | facilitation and/or enhancement of peptide delivery
